Results reported in article PMC13090976 (Cell Stress & Chaperones, 2026).

B1: human CHIP-TPR (residues 21-154) [human] / biotin-GSGSGP(pT)IEEVD [modified: biotin, printed before the first residue; phosphothreonine (pT; Thr636 in HSPA1A numbering); biotin, printed before the first residue; phosphothreonine (pT; … (parent complex)
chain 1: EKSPSAQELKEQGNRLFVGRKYPEAAACYGRAITRNPLVAVYYTNRALCYLKMQQHEQALADCRRALELDGQSVKAHFFLGQCQLEMESYDEAIANLQRAYSLAKEQRLNFGDDIPSALRIAKKKRWNSIEERR
chain 2: GSGSGPTIEEVD

Variants of: B1
Assay: biolayer interferometry; read off a plot

Row | Variant | Kd [µM]
1 | chain 1 G112S | ~1
2 | chain 1 N45S | ~6.6
